Measurements published in article PMC2978023 (Journal of immunology (Baltimore, Md. : 1950), 2008).

B1: Fas ligand: promotes PMN death via interaction with its receptor on the cell surface (protein, UniProt P48023 130-281, looked up)
Tumor necrosis factor ligand …: QIGHPSPPPEKKELRKVAHLTGKSNSRSMPLEWEDTYGIVLLSGVKYKKGGLVINETGLYFVYSKVYFRGQSCNNLPLSHKVYMRNSKYPQDLVMMEGKMMSYCTTGQMWARSSYLGAVFNLTSADHLYVNVSELSLVNFEESQTFFGLYKL
B2: plasmin (protein, UniProt P00747 20-580; P00747 581-810, looked up)
Plasmin heavy chain A: EPLDDYVNTQGASLFSVTKKQLGAGSIEECAAKCEEDEEFTCRAFQYHSKEQQCVIMAENRKSSIIIRMRDVVLFEKKVYLSECKTGNGKNYRGTMSKTKNGITCQKWSSTSPHRPRFSPATHPSEGLEENYCRNPDNDPQGPWCYTTDPEKRYDYCDILECEEECMHCSGENYDGKISKTMSGLECQAWDSQSPHAHGYIPSKFPNKNLKKNYCRNPDRELRPWCFTTDPNKRWELCDIPRCTTPPPSSGPTYQCLKGTGENYRGNVAVTVSGHTCQHWSAQTPHTHNRTPENFPCKNLDENYCRNPDGKRAPWCHTTNSQVRWEYCKIPSCDSSPVSTEQLAPTAPPELTPVVQDCYHGDGQSYRGTSSTTTTGKKCQSWSSMTPHRHQKTPENYPNAGLTMNYCRNPDADKGPWCFTTDPSVRWEYCNLKKCSGTEASVVAPPPVVLLPDVETPSEEDCMFGNGKGYRGKRATTVTGTPCQDWAAQEPHRHSIFTPETNPRAGLEKNYCRNPDGDVGGPWCYTTNPRKLYDYCDVPQCAAPSFDCGKPQVEPKKCPGR
Plasmin light chain B: VVGGCVAHPHSWPWQVSLRTRFGMHFCGGTLISPEWVLTAAHCLEKSPRPSSYKVILGAHQEVNLEPHVQEIEVSRLFLEPTRKDIALLKLSSPAVITDKVIPACLPSPNYVVADRTECFITGWGETQGTFGAGLLKEAQLPVIENKVCNRYEFLNGRVQSTELCAGHLAGGTDSCQGDSGGPLVCFEKDKYILQGVTSWGLGCARPNKPGVYVRVSRFVTWIEGVMRNN
modifications: Plasmin

Tests used:
PMN = settings: cited from earlier work
human PMNs = settings: PMN; data not shown
monocytes = settings: PAR-1-dependent; ref [29]; cited from earlier work

Row | Molecule | effect on PMN death (PMN) | prosurvival/cytoprotective effect on PMN (in words) (human PMNs) | effect on TNF-α-induced apoptosis in monocytes (monocytes)
1 | B1 | promote PMN death | – | –
2 | B2 | – | did not exert a cytoprotective function | inhibits TNF-α-induced apoptosis in monocytes
